Target: T1, PKC-delta (Homo sapiens, UniProt Q05655)
T1 construct: purchased Calbiochem
Experiment: In vitro kinase assay: peptide phosphorylation by PKC-delta
Format: biochemical
Procedure, shortened: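 Biotin-Lys-dansyl-Lys-Pro-Pro-Gly-linked proteomic peptides (12–21-residue core) phosphorylated by PKC-delta in HEPES/Triton/CaCl2/MgCl2 buffer with phosphatidyl serine and PMA, 100 μM [γ-32P]ATP, 30° C., ~10 min, stoichiometry ≤5%; streptavidin-plate capture. Signal normalized as % of best peptide substrate.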

T1 sequence (Q05655 whole entry): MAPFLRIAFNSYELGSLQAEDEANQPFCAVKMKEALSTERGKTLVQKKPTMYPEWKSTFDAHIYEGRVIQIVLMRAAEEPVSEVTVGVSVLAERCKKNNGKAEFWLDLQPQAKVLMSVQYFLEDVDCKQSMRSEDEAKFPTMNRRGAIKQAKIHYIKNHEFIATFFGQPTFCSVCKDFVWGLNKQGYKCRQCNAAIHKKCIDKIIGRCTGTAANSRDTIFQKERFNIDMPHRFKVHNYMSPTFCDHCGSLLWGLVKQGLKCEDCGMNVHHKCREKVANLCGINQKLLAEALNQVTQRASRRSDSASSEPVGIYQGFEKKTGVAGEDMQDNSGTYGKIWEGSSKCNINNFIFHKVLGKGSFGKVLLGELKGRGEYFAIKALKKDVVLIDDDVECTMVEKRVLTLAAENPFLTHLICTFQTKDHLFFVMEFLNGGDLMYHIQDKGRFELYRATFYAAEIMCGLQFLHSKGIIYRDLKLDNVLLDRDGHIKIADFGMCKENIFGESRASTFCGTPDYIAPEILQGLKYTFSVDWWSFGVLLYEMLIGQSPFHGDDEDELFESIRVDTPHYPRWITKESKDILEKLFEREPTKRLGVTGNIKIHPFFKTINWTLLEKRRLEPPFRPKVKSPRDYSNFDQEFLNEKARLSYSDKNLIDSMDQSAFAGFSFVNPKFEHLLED

Row | Substance | phosphorylation by PKC-delta (peptide concentration 1 uM) | phosphorylation by PKC-delta (peptide concentration 10 uM)
1 | 148 (RELEQLKAEYLERRASRRRA) [compound 148] | 27 | 14
2 | 149 (RVVQSVKHTKRKSSTVMK) [compound 149] | 20 | 17
3 | 150 (VDPFYEMLAARKKRISVKKK) [compound 150] | 34 | 20
4 | 151 (PQNSLKASNRKKKRTSFKRK) [compound 151] | 27 | 37
5 | 152 (DLIEGRKGAQIVKRASLKRG) [compound 152] | 35 | 18
6 | 153 (TYLLPDKSRQGKRKTSIKRD) [compound 153] | 32 | 26
